This passage reports Kd results from publication PMC7060239 (2020).

For assay [1], the target named is T1, PHD finger of human UHRF1 (residues 299–366) (human, UniProt Q96T88 299-366).
T1 chain: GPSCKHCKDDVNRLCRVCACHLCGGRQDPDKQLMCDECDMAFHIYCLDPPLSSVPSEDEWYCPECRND
Briefly: ITC. (In general: ITC needs no label: the signal is the heat of the interaction.)

Assay [2] concerns the target T2, human DNMT1 RFTS domain, residues 351–600 (human, UniProt P26358 351-600).
T2 chain: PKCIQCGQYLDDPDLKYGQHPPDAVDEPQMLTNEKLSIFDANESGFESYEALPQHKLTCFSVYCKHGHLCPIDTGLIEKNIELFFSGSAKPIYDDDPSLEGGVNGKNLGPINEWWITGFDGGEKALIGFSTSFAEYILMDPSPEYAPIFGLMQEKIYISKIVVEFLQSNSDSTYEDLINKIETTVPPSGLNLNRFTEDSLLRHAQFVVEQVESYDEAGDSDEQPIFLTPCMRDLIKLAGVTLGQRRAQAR
Briefly: ITC.

For orientation: Kd means the free concentration of one partner at which half of the binding sites on the other are occupied at equilibrium, for simple one-to-one binding. Read a high Kd as a looser complex. In the case of VRTAADSVPG [hPAF15_(2-11)-K5A peptide], in assay [1], the Kd is 5.7 µM.

B1: PAF15_(2-30) unmodified (peptide)
chain: VRTKADSVPGTYRKVVAARAPRKVLGSST
modifications: unmodified (no ubiquitin); taken as wild-type K15/K24, since the text describes K15C/K24C only for preparing the ubiquitylated analogs
Take B1: in assay [2], the Kd turned out to be 6 µM.
